Measured values: article PMC12604781 (PLOS Pathogens, 2025)

Target: SUMO-PRV peptide AB (pseudorabies virus (PRV))
Experiment: ITC

## pcGAS^CT (C-terminus, catalytic domain of porcine cGAS) (domain or fragment)
  Kd: 2920 nM
